Assay results from patent EP2966448B1, “METHOD FOR THE PREDICTION OR PROGNOSIS OF THE RESPONSE OF A HUMAN SUBJECT SUFFERING FROM CANCER TO TREATMENT WITH AN ANTAGONIST OF THE NK1 RECEPTOR” (priority 2013, dated 2014).

Target: NK1 receptor (human) (UniProt P25103)
Assay: cell-based or functional assay

Sequence of NK1 receptor (human) (P25103 87-407): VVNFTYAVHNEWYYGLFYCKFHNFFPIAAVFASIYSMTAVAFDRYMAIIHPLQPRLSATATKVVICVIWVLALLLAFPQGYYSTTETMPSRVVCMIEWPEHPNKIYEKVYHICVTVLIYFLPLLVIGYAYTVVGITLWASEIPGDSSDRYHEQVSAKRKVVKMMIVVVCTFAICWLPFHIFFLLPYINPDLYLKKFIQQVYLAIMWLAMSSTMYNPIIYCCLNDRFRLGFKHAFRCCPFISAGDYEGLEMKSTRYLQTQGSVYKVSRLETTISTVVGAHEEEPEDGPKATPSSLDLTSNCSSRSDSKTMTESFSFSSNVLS

“anti-NK1 antibody (S8305, Sigma-Aldrich)” gave a Percentage of inhibition of cell cultures; Breast carcinoma (ductal adenocarcinoma); cases with amplification of the gene that encodes for the NK1 receptor of 96%, a Percentage of inhibition of cell cultures; Breast carcinoma (ductal adenocarcinoma); cases without amplification of the gene that encodes for the NK1 receptor of 26% and a Percentage of inhibition of cell cultures; Breast carcinoma (ductal adenocarcinoma); high expression of the truncated form of NK1 receptor (Group B) of 94%. For the same substance, the Percentage of inhibition of cell cultures; Breast carcinoma (ductal adenocarcinoma); low expression of the truncated form of NK1 receptor (Group A) was 24%, the Percentage of inhibition of cell cultures; Burkitt Lymphoma; cases with amplification of the gene that encodes for the NK1 receptor was 96% and the Percentage of inhibition of cell cultures; Burkitt Lymphoma; cases without amplification of the gene that encodes for the NK1 receptor was 25%. For the same substance, the Percentage of inhibition of cell cultures; Burkitt Lymphoma; high expression of the truncated form of NK1 receptor (Group B) was 96%, the Percentage of inhibition of cell cultures; Burkitt Lymphoma; low expression of the truncated form of NK1 receptor (Group A) was 26% and the Percentage of inhibition of cell cultures; Carcinoma of the uterine cervix (Squamous cell carcinoma); cases with amplification of the gene that encodes for the NK1 receptor was 94%. It also gave a Percentage of inhibition of cell cultures; Carcinoma of the uterine cervix (Squamous cell carcinoma); cases without amplification of the gene that encodes for the NK1 receptor of 27%, a Percentage of inhibition of cell cultures; Carcinoma of the uterine cervix (Squamous cell carcinoma); high expression of the truncated form of NK1 receptor (Group B) of 95% and a Percentage of inhibition of cell cultures; Carcinoma of the uterine cervix (Squamous cell carcinoma); low expression of the truncated form of NK1 receptor (Group A) of 24%. It also gave a Percentage of inhibition of cell cultures; Colon carcinoma (Adenocarcinoma); cases with amplification of the gene that encodes for the NK1 receptor of 96%, a Percentage of inhibition of cell cultures; Colon carcinoma (Adenocarcinoma); cases without amplification of the gene that encodes for the NK1 receptor of 24% and a Percentage of inhibition of cell cultures; Colon carcinoma (Adenocarcinoma); high expression of the truncated form of NK1 receptor (Group B) of 94%. For the same substance, the Percentage of inhibition of cell cultures; Colon carcinoma (Adenocarcinoma); low expression of the truncated form of NK1 receptor (Group A) was 24%, the Percentage of inhibition of cell cultures; Endometrium carcinoma; cases with amplification of the gene that encodes for the NK1 receptor was 96% and the Percentage of inhibition of cell cultures; Endometrium carcinoma; cases without amplification of the gene that encodes for the NK1 receptor was 28%. The Percentage of inhibition of cell cultures; Endometrium carcinoma; high expression of the truncated form of NK1 receptor (Group B) was 94%, the Percentage of inhibition of cell cultures; Endometrium carcinoma; low expression of the truncated form of NK1 receptor (Group A) was 26% and the Percentage of inhibition of cell cultures; Gastric carcinoma (Adenocarcinoma); cases with amplification of the gene that encodes for the NK1 receptor was 95%. For the same substance, the Percentage of inhibition of cell cultures; Gastric carcinoma (Adenocarcinoma); cases without amplification of the gene that encodes for the NK1 receptor was 25%, the Percentage of inhibition of cell cultures; Gastric carcinoma (Adenocarcinoma); high expression of the truncated form of NK1 receptor (Group B) was 96% and the Percentage of inhibition of cell cultures; Gastric carcinoma (Adenocarcinoma); low expression of the truncated form of NK1 receptor (Group A) was 22%. For the same substance, the Percentage of inhibition of cell cultures; Glioma (astrocytoma); cases with amplification of the gene that encodes for the NK1 receptor was 95%, the Percentage of inhibition of cell cultures; Glioma (astrocytoma); cases without amplification of the gene that encodes for the NK1 receptor was 25% and the Percentage of inhibition of cell cultures; Glioma (astrocytoma); high expression of the truncated form of NK1 receptor (Group B) was 96%. The Percentage of inhibition of cell cultures; Glioma (astrocytoma); low expression of the truncated form of NK1 receptor (Group A) was 24%, the Percentage of inhibition of cell cultures; Lung carcinoma (non small cell lung carcinoma); cases with amplification of the gene that encodes for the NK1 receptor was 97% and the Percentage of inhibition of cell cultures; Lung carcinoma (non small cell lung carcinoma); cases without amplification of the gene that encodes for the NK1 receptor was 25%. For the same substance, the Percentage of inhibition of cell cultures; Lung carcinoma (non small cell lung carcinoma); high expression of the truncated form of NK1 receptor (Group B) was 95%, the Percentage of inhibition of cell cultures; Lung carcinoma (non small cell lung carcinoma); low expression of the truncated form of NK1 receptor (Group A) was 26% and the Percentage of inhibition of cell cultures; Lung carcinoma (small cell lung carcinoma); cases with amplification of the gene that encodes for the NK1 receptor was 95%. For the same substance, the Percentage of inhibition of cell cultures; Lung carcinoma (small cell lung carcinoma); cases without amplification of the gene that encodes for the NK1 receptor was 26%, the Percentage of inhibition of cell cultures; Lung carcinoma (small cell lung carcinoma); high expression of the truncated form of NK1 receptor (Group B) was 96% and the Percentage of inhibition of cell cultures; Lung carcinoma (small cell lung carcinoma); low expression of the truncated form of NK1 receptor (Group A) was 25%. It also gave a Percentage of inhibition of cell cultures; Melanoma (Nodular Melanoma); cases with amplification of the gene that encodes for the NK1 receptor of 97%, a Percentage of inhibition of cell cultures; Melanoma (Nodular Melanoma); cases without amplification of the gene that encodes for the NK1 receptor of 26% and a Percentage of inhibition of cell cultures; Melanoma (Nodular Melanoma); high expression of the truncated form of NK1 receptor (Group B) of 96%. For the same substance, the Percentage of inhibition of cell cultures; Melanoma (Nodular Melanoma); low expression of the truncated form of NK1 receptor (Group A) was 26%, the Percentage of inhibition of cell cultures; Non Hodgkin Lymphoma B (diffuse B cell lymphoma); cases with amplification of the gene that encodes for the NK1 receptor was 94% and the Percentage of inhibition of cell cultures; Non Hodgkin Lymphoma B (diffuse B cell lymphoma); cases without amplification of the gene that encodes for the NK1 receptor was 26%. The Percentage of inhibition of cell cultures; Non Hodgkin Lymphoma B (diffuse B cell lymphoma); high expression of the truncated form of NK1 receptor (Group B) was 95%, the Percentage of inhibition of cell cultures; Non Hodgkin Lymphoma B (diffuse B cell lymphoma); low expression of the truncated form of NK1 receptor (Group A) was 24% and the Percentage of inhibition of cell cultures; Non Hodgkin Lymphoma T (diffuse T cell lymphoma); cases with amplification of the gene that encodes for the NK1 receptor was 95%. It also gave a Percentage of inhibition of cell cultures; Non Hodgkin Lymphoma T (diffuse T cell lymphoma); cases without amplification of the gene that encodes for the NK1 receptor of 24%, a Percentage of inhibition of cell cultures; Non Hodgkin Lymphoma T (diffuse T cell lymphoma); high expression of the truncated form of NK1 receptor (Group B) of 95% and a Percentage of inhibition of cell cultures; Non Hodgkin Lymphoma T (diffuse T cell lymphoma); low expression of the truncated form of NK1 receptor (Group A) of 25%. The Percentage of inhibition of cell cultures; Ovarian carcinoma (Adenocarcinoma); cases with amplification of the gene that encodes for the NK1 receptor was 95%, the Percentage of inhibition of cell cultures; Ovarian carcinoma (Adenocarcinoma); cases without amplification of the gene that encodes for the NK1 receptor was 24% and the Percentage of inhibition of cell cultures; Ovarian carcinoma (Adenocarcinoma); high expression of the truncated form of NK1 receptor (Group B) was 95%. The Percentage of inhibition of cell cultures; Ovarian carcinoma (Adenocarcinoma); low expression of the truncated form of NK1 receptor (Group A) was 25%, the Percentage of inhibition of cell cultures; Pancreatic carcinoma (Adenocarcinoma); cases with amplification of the gene that encodes for the NK1 receptor was 96% and the Percentage of inhibition of cell cultures; Pancreatic carcinoma (Adenocarcinoma); cases without amplification of the gene that encodes for the NK1 receptor was 25%. It also gave a Percentage of inhibition of cell cultures; Pancreatic carcinoma (Adenocarcinoma); high expression of the truncated form of NK1 receptor (Group B) of 95%, a Percentage of inhibition of cell cultures; Pancreatic carcinoma (Adenocarcinoma); low expression of the truncated form of NK1 receptor (Group A) of 23% and a Percentage of inhibition of cell cultures; Prostate carcinoma; cases with amplification of the gene that encodes for the NK1 receptor of 95%. The Percentage of inhibition of cell cultures; Prostate carcinoma; cases without amplification of the gene that encodes for the NK1 receptor was 25%, the Percentage of inhibition of cell cultures; Prostate carcinoma; high expression of the truncated form of NK1 receptor (Group B) was 95% and the Percentage of inhibition of cell cultures; Prostate carcinoma; low expression of the truncated form of NK1 receptor (Group A) was 27%. The Percentage of inhibition of cell cultures; Renal cell carcinoma (clear cell renal cell carcinoma); cases with amplification of the gene that encodes for the NK1 receptor was 97%, the Percentage of inhibition of cell cultures; Renal cell carcinoma (clear cell renal cell carcinoma); cases without amplification of the gene that encodes for the NK1 receptor was 27% and the Percentage of inhibition of cell cultures; Renal cell carcinoma (clear cell renal cell carcinoma); high expression of the truncated form of NK1 receptor (Group B) was 93%. For the same substance, the Percentage of inhibition of cell cultures; Renal cell carcinoma (clear cell renal cell carcinoma); low expression of the truncated form of NK1 receptor (Group A) was 24%, the Percentage of inhibition of cell cultures; Thyroid carcinoma (follicular carcinoma); cases with amplification of the gene that encodes for the NK1 receptor was 95% and the Percentage of inhibition of cell cultures; Thyroid carcinoma (follicular carcinoma); cases without amplification of the gene that encodes for the NK1 receptor was 26%. The Percentage of inhibition of cell cultures; Thyroid carcinoma (follicular carcinoma); high expression of the truncated form of NK1 receptor (Group B) was 94%, the Percentage of inhibition of cell cultures; Thyroid carcinoma (follicular carcinoma); low expression of the truncated form of NK1 receptor (Group A) was 24% and the Percentage of inhibition of cell cultures; Thyroid carcinoma (papillary carcinoma); cases with amplification of the gene that encodes for the NK1 receptor was 96%. For the same substance, the Percentage of inhibition of cell cultures; Thyroid carcinoma (papillary carcinoma); cases without amplification of the gene that encodes for the NK1 receptor was 27%, the Percentage of inhibition of cell cultures; Thyroid carcinoma (papillary carcinoma); high expression of the truncated form of NK1 receptor (Group B) was 95% and the Percentage of inhibition of cell cultures; Thyroid carcinoma (papillary carcinoma); low expression of the truncated form of NK1 receptor (Group A) was 25%. The Percentage of inhibition of cell cultures; Undifferentiated Pleomorphic Sarcoma (malignant fibrous histiocytoma grade 3); cases with amplification of the gene that encodes for the NK1 receptor was 96%, the Percentage of inhibition of cell cultures; Undifferentiated Pleomorphic Sarcoma (malignant fibrous histiocytoma grade 3); cases without amplification of the gene that encodes for the NK1 receptor was 25% and the Percentage of inhibition of cell cultures; Undifferentiated Pleomorphic Sarcoma (malignant fibrous histiocytoma grade 3); high expression of the truncated form of NK1 receptor (Group B) was 95%. The Percentage of inhibition of cell cultures; Undifferentiated Pleomorphic Sarcoma (malignant fibrous histiocytoma grade 3); low expression of the truncated form of NK1 receptor (Group A) was 25%, the Percentage of inhibition of cell cultures; Urinary bladder carcinoma (transitional cell carcinoma); cases with amplification of the gene that encodes for the NK1 receptor was 94% and the Percentage of inhibition of cell cultures; Urinary bladder carcinoma (transitional cell carcinoma); cases without amplification of the gene that encodes for the NK1 receptor was 24%. It also gave a Percentage of inhibition of cell cultures; Urinary bladder carcinoma (transitional cell carcinoma); high expression of the truncated form of NK1 receptor (Group B) of 96% and a Percentage of inhibition of cell cultures; Urinary bladder carcinoma (transitional cell carcinoma); low expression of the truncated form of NK1 receptor (Group A) of 26%.
